Test results: patent US20090143241

Columns and labels:
[1] = tested on: GFP-tag (EGFP with the tmRNA peptide tag AANDENYALAA at the C terminus) [GFP: P42212]
[2] = tested on: IXP1, cyclic SGWYGRRH peptide

| Substance | KM of GFP-tag degradation (ClpXP with SspB) [1] | KM of GFP-tag degradation (ClpXP with SspB, no cyclic peptide) [1] | kcat of GFP-tag degradation (ClpXP with SspB) [1] | kcat of GFP-tag degradation (ClpXP with SspB, no cyclic peptide) [1] | rate of GFP-tag proteolysis [2] | rate of ClpX ATP hydrolysis [2] | rate of ClpX ATP hydrolysis with GFP-tag included [2] |
| --- | --- | --- | --- | --- | --- | --- | --- |
| ClpXP protease (E. coli ClpX6 with ClpP14) | KM=0.74±0.04 | KM=0.74±0.04 µM | kcat=1.79±0.08 min-1 | kcat=1.79±0.08 min^-1 | Inclusion of purified IXP1 reduced the rate of GFP-tag proteolysis | – | – |
| ClpX (E. coli), N-terminally His6-tagged | – | – | – | – | – | The rate of ClpX ATP hydrolysis was not inhibited by IXP1 at concentrations up to 200 µM | IXP1 still had no effect on ClpX activity |
